Results published in patent US20180195056.

B1: xlAtg4B^14-384 (protein)
chain: ADTPDFPETAEPVWVLGRKYSALTEKEQLLNDITSRLWFTYRRNFQAIGGTGPTSDTGWGCMLRCGQMIFAQALICRHVGRDWRWDKQKPKGEYLNILTAFLDKKDSYYSIHQIAQMGVGEGKYIGQWYGPNTVAQVLRKLAVFDQWSSIAVHIAMDNTVVVDEIRRLCRAGSGESSDAGALSNGYTGDSDPSCAQWKPLVLLIPLRLGLSEINEAYIETLKHCFMVPQSLGVIGGRPNSAHYFIGYVGDELIYLDPHTTQLSVEPSDCSFIEDESFHCQHPPCRMHVSEIDPSIAVGFFCSSQEDFEDWCQHIKKLSLSGGALPMFEVVDQLPLHLSNPDVLNLTPDSSDADRLDRFFDSEDEEFEILSL
B2: xlAtg4B^25-384 (protein)
chain: PVWVLGRKYSALTEKEQLLNDITSRLWFTYRRNFQAIGGTGPTSDTGWGCMLRCGQMIFAQALICRHVGRDWRWDKQKPKGEYLNILTAFLDKKDSYYSIHQIAQMGVGEGKYIGQWYGPNTVAQVLRKLAVFDQWSSIAVHIAMDNTVVVDEIRRLCRAGSGESSDAGALSNGYTGDSDPSCAQWKPLVLLIPLRLGLSEINEAYIETLKHCFMVPQSLGVIGGRPNSAHYFIGYVGDELIYLDPHTTQLSVEPSDCSFIEDESFHCQHPPCRMHVSEIDPSIAVGFFCSSQEDFEDWCQHIKKLSLSGGALPMFEVVDQLPLHLSNPDVLNLTPDSSDADRLDRFFDSEDEEFEILSL
B3: xlAtg4B^25-345 (protein)
chain: PVWVLGRKYSALTEKEQLLNDITSRLWFTYRRNFQAIGGTGPTSDTGWGCMLRCGQMIFAQALICRHVGRDWRWDKQKPKGEYLNILTAFLDKKDSYYSIHQIAQMGVGEGKYIGQWYGPNTVAQVLRKLAVFDQWSSIAVHIAMDNTVVVDEIRRLCRAGSGESSDAGALSNGYTGDSDPSCAQWKPLVLLIPLRLGLSEINEAYIETLKHCFMVPQSLGVIGGRPNSAHYFIGYVGDELIYLDPHTTQLSVEPSDCSFIEDESFHCQHPPCRMHVSEIDPSIAVGFFCSSQEDFEDWCQHIKKLSLSGGALPMFEVVDQ
B4: full-length xlAtg4B (Xenopus laevis Atg4B, residues 1-384) (protein)
chain: MDAATLTYDTLRFADTPDFPETAEPVWVLGRKYSALTEKEQLLNDITSRLWFTYRRNFQAIGGTGPTSDTGWGCMLRCGQMIFAQALICRHVGRDWRWDKQKPKGEYLNILTAFLDKKDSYYSIHQIAQMGVGEGKYIGQWYGPNTVAQVLRKLAVFDQWSSIAVHIAMDNTVVVDEIRRLCRAGSGESSDAGALSNGYTGDSDPSCAQWKPLVLLIPLRLGLSEINEAYIETLKHCFMVPQSLGVIGGRPNSAHYFIGYVGDELIYLDPHTTQLSVEPSDCSFIEDESFHCQHPPCRMHVSEIDPSIAVGFFCSSQEDFEDWCQHIKKLSLSGGALPMFEVVDQLPLHLSNPDVLNLTPDSSDADRLDRFFDSEDEEFEILSL

Protein | cleavage efficiency at limiting substrate concentration (constant protease:substrate ratio 1:1000, 1 h, 0° C.) (His14-xlLC3B-MBP) | protease concentration sufficient to cleave 100 µM substrate within 1 h at 0° C. (His14-xlLC3B-MBP) | salt sensitivity of substrate cleavage (500 nM protease, 1 h, 0° C.) (His14-xlLC3B-MBP) | substrate cleavage (20 µM protease, 100 µM substrate, 3 h, 25° C.) (His14-xlLC3B-MBP) | substrate excess cleaved to near completion within 1 h at 37° C. (His14-xlLC3B-MBP) | salt sensitivity of substrate cleavage (500 nM protease, 1 h, 0° C.) (His14-xlGATE16-MBP) | substrate excess cleaved to near completion within 1 h at 25° C. (His14-xlGATE16-MBP) | temperature dependence of substrate cleavage (His14-xlLC3B-MBP) | time for efficient cleavage (>95%) at 500 nM protease, 0° C., against full-length or N-terminally truncated enzymes (His14-xlLC3B-MBP) | cleavage efficiency at limiting substrate concentration (constant protease:substrate ratio 1:2000, 1 h, 0° C.) (His14-xlGATE16-MBP) | percent of a 6600-fold substrate excess cleaved in 1 h at 37° C. (His14-xlGATE16-MBP) | protease concentration needed to cleave 100 µM substrate within 2 h at 0° C. (His14-xlGATE16-MBP) | protease required for substrate processing at 0° C., against the other protease fragments (His14-xlGATE16-MBP) | protease required for substrate processing at 25° C., against the other protease fragments (His14-xlGATE16-MBP) | temperature needed for near-complete cleavage of a 6600-fold substrate excess in 1 h (His14-xlGATE16-MBP)
B1 | full-length xlAtg4B and both N-terminally shortened fragments could cleave the xlLC3B substrate rather efficiently even at substrate concentrations as low as 3-10 µM | 1 µM of each protease fragment was sufficient to cleave 100 µM of substrate within 1 h | xlLC3B processing by full-length xlAtg4B or its N-terminally truncated fragments was remarkably insensitive towards NaCl concentrations up to 1.5 M | xlLC3B was nearly exclusively recognized by xlAtg4B^14-384 | Within 1 h at 37° C., all three enzymes were able to cleave a >3000-fold excess of the xlLC3B substrate to near completion | also full-length or N-terminally truncated xlAtg4B fragments showed a reduced cleavage activity at ≥1 M NaCl | near-complete cleavage of a 6600-fold substrate excess was reached for the two N-terminally shortened protease fragments already at 25 °C | – | – | – | – | – | – | – | –
B2 | full-length xlAtg4B and both N-terminally shortened fragments could cleave the xlLC3B substrate rather efficiently even at substrate concentrations as low as 3-10 µM | 1 µM of each protease fragment was sufficient to cleave 100 µM of substrate within 1 h | xlLC3B processing by full-length xlAtg4B or its N-terminally truncated fragments was remarkably insensitive towards NaCl concentrations up to 1.5 M | – | Within 1 h at 37° C., all three enzymes were able to cleave a >3000-fold excess of the xlLC3B substrate to near completion | also full-length or N-terminally truncated xlAtg4B fragments showed a reduced cleavage activity at ≥1 M NaCl | near-complete cleavage of a 6600-fold substrate excess was reached for the two N-terminally shortened protease fragments already at 25 °C | – | – | – | – | – | – | – | –
B3 | the C-terminally truncated protease showed significantly reduced cleavage already at 100-30 µM substrate concentration | 1 µM of each protease fragment was sufficient to cleave 100 µM of substrate within 1 h | Deletion of the protease's C-terminus, however, rendered the reaction salt sensitive at NaCl concentrations ≥0.5 M | – | – | The weak activity of xlAtg4B^25-345 on xlGATE16 was further reduced at salt concentrations ≥0.5 M | – | The boost of xlLC3B substrate processing at higher temperatures, however, was much weaker for this protease fragment | efficient cleavage (i.e. >95% cleavage) of the xlLC3B substrate required twice as long when using xlAtg4B^25-345 instead of the full-length or just N-terminally truncated xlAtg4B enzymes | Even more drastic effects were observed when cleaving xlGATE16-MBP with xlAtg4B^25-345 (FIG. 6A, right lower panel). Here, processing was poor even at 300 µM substrate concentration | could only cleave ≈30-4 0% of a 6600-fold substrate excess even at 37 °C | 500 nM of xlAtg4B^25-345 were insufficient to cleave 100 µM of xlGATE16 substrate within 2 h at 0 °C | ≈10-fold and ≈30-fold more xlAtg4B^25-345 was required for xlGATE16 processing as compared to the other protease fragments at 0 °C and 25° C., respectively | ≈10-fold and ≈30-fold more xlAtg4B^25-345 was required for xlGATE16 processing as compared to the other protease fragments at 0 °C and 25° C., respectively | –
B4 | full-length xlAtg4B and both N-terminally shortened fragments could cleave the xlLC3B substrate rather efficiently even at substrate concentrations as low as 3-10 µM | 1 µM of each protease fragment was sufficient to cleave 100 µM of substrate within 1 h | xlLC3B processing by full-length xlAtg4B or its N-terminally truncated fragments was remarkably insensitive towards NaCl concentrations up to 1.5 M | – | Within 1 h at 37° C., all three enzymes were able to cleave a >3000-fold excess of the xlLC3B substrate to near completion | also full-length or N-terminally truncated xlAtg4B fragments showed a reduced cleavage activity at ≥1 M NaCl | – | – | – | – | – | – | – | – | the full-length enzyme required 37 °C for a similarly efficient cleavage
